{"source": "patent US5851983A", "about": "“Elastase inhibitory polypeptide and process for production thereof by recombinant gene technology” (Teijin Limited, priority 1987, dated 1998)", "molecules": {"B1": {"name": "SLPI: Human secretory leukoprotease inhibitor; recombinant SLPI of Reference Example 1 used as control (protein)", "chain": "SGKSFKAGVCPPKKSAQCLRYKKPECQSDWQCPGKKRCCPDTCGIKCLDPVDTPNPTRRKPGKCPVTYGQCLMLNPPNFCEMDGQCKRDLKCCMGMCGKSCVSPVKA"}}, "key": {"[1]": {"target": "T1, polymorphonuclear leucocyte elastase from human sputum (Homo sapiens, UniProt P08246)", "T1 construct": "Polymorphonuclear leukocyte elastase from human sputum (EPC Co; Funakoshi Yakuhin); purchased EPC Co. (via Funakoshi Yakuhin); host or cells: human sputum", "T1 sequence (P08246 30-267)": "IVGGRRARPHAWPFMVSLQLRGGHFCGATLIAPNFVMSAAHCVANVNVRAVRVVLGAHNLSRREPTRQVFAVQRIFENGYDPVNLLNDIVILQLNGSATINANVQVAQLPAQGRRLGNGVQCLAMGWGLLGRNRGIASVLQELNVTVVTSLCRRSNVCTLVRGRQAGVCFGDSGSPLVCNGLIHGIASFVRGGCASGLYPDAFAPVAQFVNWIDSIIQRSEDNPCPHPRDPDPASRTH", "test": "Simultaneous treatment with healthy human saliva and elastase (Examples 28, 29)", "type": "in vitro ADME", "details": "37° C.", "description": "(1) Healthy human saliva was ultra-filtered through a 0.22 μm filter (Millex GS, Millipore), and to the filtered saliva were added SLPI and polymorphonuclear leucocyte elastase from human sputum (EPC, Funakoshi Yakuhin) to a final concentration of 50 μM respectively. The mixture was incubated at 37° C., samples were taken as time elapsed, and analyzed by SDS-PAGE as described in Example 27.\n(2) Next, the band J was transferred to a membrane as described in Example 27, and N-terminal amino acid sequence was analyzed.\n(1) According to the same procedure as described in Example 28, to healthy human saliva were dissolved SLPI and polymorphonuclear leucocyte elastase from human sputum to final concentrations of 50 μM and 100 μM respectively, and the mixture was incubated at 37° C. Samples were taken as time elapsed, and analyzed by SDS-PAGE.\n(2) Next, N-terminal amino acid sequence of the band M was analyzed as described in Example 27."}, "[2]": {"target": "T1, polymorphonuclear leucocyte elastase from human sputum", "test": "Assay for elastase inhibitor activity (Example 24)", "type": "biochemical", "details": "enzyme 2 × 10^-8 M, substrate 3.0 × 10^-4 M", "description": "The following assay method was used.\nBuffer: 0.1M (2-hydroxyethyl)piperazine-N'-2-ethansulfonic acid (HEPES), 0.5M NaCl, pH 7.5.\nEnzyme concentration: the following enzyme was dissolved in the above-mentioned buffer to a concentration 9 times that shown in Table 12.\nA. Polymorphonuclear leucocyte elastase from human sputum (EPC Co., Funakoshi Yakuhin)\nSubstrate solution: for the enzymes A, B, C, D and E, the following substrate a, b, c, d or e, respectively, was dissolved in a solution of DMSO+the above-mentioned buffer (1:9) (note, final concentration of DMSO was 10% in the buffer) to a concentration of 9 times that shown in Table 12.\na. MeO-Suc-Ala-Ala-Pro-Val-pNA (Bachem) […]\nTo wells of an ELISA 96-well microtiter plate, were added 120 μl of the buffer and the 20 μl of a sample solution of (Arg^59 -Ala^107) SLPI obtained in Example 23, followed by 20 μl of the enzyme solution. The mixture was reacted at 37° C. for 10 minutes. Next, 20 μl of the substrate was added, and developed at 37° C. The developed color was measured by absorption at 405 nm.\nAs a control the same procedure was carried out using SLPI."}, "Human plasma thrombin [3]": {"target": "T2, Human plasma thrombin (Homo sapiens, UniProt P00734)", "T2 construct": "(5) Human plasma thrombin (Kabi, Daiichi Kagaku Yakuhin); purchased Kabi (via Daiichi Kagaku Yakuhin); host or cells: human plasma", "test": "Assay for thrombin inhibitory activity (Example 25)", "type": "biochemical", "details": "final concentration up to ×10^-5 M; enzyme 3 × 10^-9 M", "description": "(§1) F. Human plasma thrombin (Sigma)\n(§2) Buffer: Buffer solution for each enzyme is as follow. Thrombin and FXa: 50 mM Tris-HCl, 7.5 mM EDTA-2Na, 175 mM NaCl (pH 8.4) […]\n(§3) Substrate solution: for the enzymes F, G, H and I, the following substrate f, g, h or i, respectively, was dissolved to a final concentration shown in Table 14.\n(§4) f. H.D-Phe-Pip-Arg-pNA (Kabi Vitrum)\n(§5) To wells of an ELISA 96-well microtiter plate, were added a solution of (Arg^59 -Ala^107) SLPI obtained in Example 23 and then the enzyme solution, and the mixture was incubated at 37° C. for 10 minutes. Next, the substrate solution was added to develop the color, whose absorption was then measured at 405 nm. As a control, SLPI was used."}, "Human plasma plasmin": {"target": "T3, Human plasma plasmin (Homo sapiens, UniProt P00747)", "T3 construct": "(6) Human plasma plasmin (Kabi, Daiichi Kagaku Yakuhin); purchased Kabi (via Daiichi Kagaku Yakuhin); host or cells: human plasma", "T3 sequence (P00747 581-810 limits assumed)": "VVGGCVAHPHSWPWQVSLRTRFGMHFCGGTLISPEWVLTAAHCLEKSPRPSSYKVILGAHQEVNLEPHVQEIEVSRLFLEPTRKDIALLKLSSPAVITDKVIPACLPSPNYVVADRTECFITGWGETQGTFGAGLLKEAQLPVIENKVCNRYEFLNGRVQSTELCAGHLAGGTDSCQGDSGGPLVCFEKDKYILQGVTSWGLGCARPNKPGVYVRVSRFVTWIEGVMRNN", "T3 sequence (P00747 97-580 partner limits assumed)": "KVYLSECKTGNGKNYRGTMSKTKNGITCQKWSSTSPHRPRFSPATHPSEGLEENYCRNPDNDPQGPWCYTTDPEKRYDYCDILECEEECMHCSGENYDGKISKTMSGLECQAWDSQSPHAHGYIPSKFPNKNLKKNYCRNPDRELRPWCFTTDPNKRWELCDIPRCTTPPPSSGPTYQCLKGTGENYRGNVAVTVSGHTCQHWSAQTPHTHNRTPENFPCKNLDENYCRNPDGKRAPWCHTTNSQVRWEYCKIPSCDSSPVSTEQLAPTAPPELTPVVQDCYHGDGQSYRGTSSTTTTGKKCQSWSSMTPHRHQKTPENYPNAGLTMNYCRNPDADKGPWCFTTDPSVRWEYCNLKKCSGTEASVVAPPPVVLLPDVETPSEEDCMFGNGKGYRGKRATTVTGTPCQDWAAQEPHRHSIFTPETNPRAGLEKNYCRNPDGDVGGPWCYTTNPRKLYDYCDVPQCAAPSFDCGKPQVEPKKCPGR", "test": "Assay for plasmin inhibitory activity (Example 25)", "type": "biochemical", "details": "final concentration up to ×10^-5 M; enzyme 1.0 × 10^-7 M", "description": "G. Human plasma plasmin (sigma)\nPlasmin: 50 mM Tris-HCl, 100 mM NaCl (pH 7.4) […]\nas §3\ng. H.D-Val-Leu-Lys-pNA (Kabi Vitrum)\nas §5"}, "Porcine FXa [4]": {"system": "Porcine FXa", "test": "Assay for Fxa inhibitory activity (Example 25)", "type": "biochemical", "details": "final concentration up to ×10^-5 M; enzyme 1.0 × 10^-8 M", "description": "(§6) I. Porcine FXa (Daichi Seiyaku)\nas §2, §3\ni. Ratio 1:1 mixture of the following compounds: [drawing 5]\nas §5"}, "Human plasma thrombin [5]": {"target": "T2, Human plasma thrombin", "test": "Assay for thrombin inhibitory activity (Example 36)", "type": "biochemical", "details": "final concentration up to ×10^-5 M; enzyme 3 × 10^-9 M", "description": "as §1\n(§7) Thrombin and FXa: 50 mM Tris-HCl, 7.5 mM EDTA-2Na, 175 mM NaCl (pH 8.4) […]\n(§8) Substrate solution: for the enzymes F, G, H and I, the following substrate f, g, h or i, respectively, was dissolved to a final concentration shown in Table 24.\nas §4\nas §5, with “(Arg^58” for “(Arg^59”, “34” for “23”"}, "Porcine FXa [6]": {"system": "Porcine FXa", "test": "Assay for Fxa inhibitory activity (Example 36)", "type": "biochemical", "details": "final concentration up to ×10^-5 M; enzyme 1.0 × 10^-8 M", "description": "as §6, §7, §8\ni. Ratio 1:1 mixture of the following compounds: [drawing 6]\nas §5, with “(Arg^58” for “(Arg^59”, “34” for “23”"}, "elastase and trypsin": {"target": "elastase and trypsin", "details": "R. C. Thompson et al., Proc. Natl. Acad. Sci. USA, 83, 6692; cited from earlier work"}}, "data": [{"molecule": "B1", "values": [{"measurement": "SDS-PAGE bands on simultaneous treatment with healthy human saliva and elastase", "setting": "[1]; 50 μM polypeptide, elastase 50 μM (Example 28) or 100 μM (Example 29)", "value": "after 96 hours, a new band J with a molecular weight of about 5,500 appeared"}, {"measurement": "cleavage site on simultaneous treatment with healthy human saliva and elastase", "setting": "[1]; N-terminal sequencing of SDS-PAGE band", "value": "cleaved at the site between Thr^57 -Arg^58"}, {"measurement": "IC50", "setting": "[2]", "value": 13, "unit": "nM"}, {"measurement": "inhibitory activity to thrombin", "setting": "Human plasma thrombin [3]", "value": "did not exhibit inhibitory activity"}, {"measurement": "inhibitory activity to plasmin", "setting": "Human plasma plasmin", "value": "did not exhibit inhibitory activity"}, {"measurement": "inhibitory activity to FXa", "setting": "Porcine FXa [4]", "value": "did not exhibit inhibitory activity"}, {"measurement": "inhibitory activity to thrombin", "setting": "Human plasma thrombin [5]", "value": "did not exhibit inhibitory activity"}, {"measurement": "inhibitory activity to FXa", "setting": "Porcine FXa [6]", "value": "did not exhibit inhibitory activity"}, {"measurement": "Ki(E) compared with Ki(T)", "setting": "elastase and trypsin", "value": "Ki(E) is roughly equivalent to Ki(T)"}]}]}
